From patent publication US20240350546A1 (TEXAS A AND M UNIVERSITY SYSTEM, published 2024)

Biological target: T1, CD26 on Rv-CD26-transduced Jurkat T cells (human, UniProt P27487 1-766)
T1 construct: whole, on cells; also called membrane CD26
Assay: ADA membrane binding efficiency from ADA activity left in medium after 24 h co-culture; Rv-ADA-CD3-293T/CD26-Jurkat T as maximum, 293T/Jurkat T without CD26 as background
Description: Next, we investigated the binding efficacy of ADA-CD3 on T cells. Jurkat-Dual (NF-KB &IRF/IFN), Jurkat-Dual transduced with Rv-CD26 (Jurkat-Dual-CD26), Jurkat-NFAT or Jurkat-NFAT transduced with Rv-CD26 (Jurkat-NFAT-CD26) reporter cell lines were co-cultured with Rv-ADA or Rv-ADA-CD3 (scFv) transduced 293 T cells for 24 hours. The cell culture medium was then used to measure ADA by ADA activity assay. ADA membrane binding efficiency was calculated using Rv-ADA-CD3-293T/CD26-Jurkat T as maximum and 293T/JurkatT W/O CD26 as background.

T1 sequence (P27487 whole entry): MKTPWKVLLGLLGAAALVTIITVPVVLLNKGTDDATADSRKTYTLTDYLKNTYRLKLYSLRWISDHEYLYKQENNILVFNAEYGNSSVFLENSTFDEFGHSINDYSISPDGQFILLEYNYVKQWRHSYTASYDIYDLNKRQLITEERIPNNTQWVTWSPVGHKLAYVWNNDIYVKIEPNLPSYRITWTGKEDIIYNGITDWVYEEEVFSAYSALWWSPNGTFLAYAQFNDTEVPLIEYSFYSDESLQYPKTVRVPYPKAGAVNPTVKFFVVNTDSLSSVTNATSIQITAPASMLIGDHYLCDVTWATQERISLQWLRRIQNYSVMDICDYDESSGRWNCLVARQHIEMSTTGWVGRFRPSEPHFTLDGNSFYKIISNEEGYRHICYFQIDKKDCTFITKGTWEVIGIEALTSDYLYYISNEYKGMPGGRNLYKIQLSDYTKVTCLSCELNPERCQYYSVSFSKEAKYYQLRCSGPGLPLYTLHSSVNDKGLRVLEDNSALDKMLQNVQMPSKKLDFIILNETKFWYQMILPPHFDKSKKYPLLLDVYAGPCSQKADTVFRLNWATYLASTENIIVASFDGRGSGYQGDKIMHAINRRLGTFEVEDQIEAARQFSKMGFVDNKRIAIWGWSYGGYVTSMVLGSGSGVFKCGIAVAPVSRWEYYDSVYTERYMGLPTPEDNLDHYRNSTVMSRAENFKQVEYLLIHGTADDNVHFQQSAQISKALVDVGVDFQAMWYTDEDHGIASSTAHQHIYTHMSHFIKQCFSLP

B1: secreted ADA (without CD3-scFv) (enzyme, human, UniProt P00813 1-363, looked up)
chain: MAQTPAFDKPKVELHVHLDGSIKPETILYYGRRRGIALPANTAEGLLNVIGMDKPLTLPDFLAKFDYYMPAIAGCREAIKRIAYEFVEMKAKEGVVYVEVRYSPHLLANSKVEPIPWNQAEGDLTPDEVVALVGQGLQEGERDFGVKARSILCCMRHQPNWSPKVVELCKKYQQQTVVAIDLAGDETIPGSSLLPGHVQAYQEAVKSGIHRTVHAGEVGSAEVVKEAVDILKTERLGHGYHTLEDQALYNRLRQENMHFEICPWSSYLTGAWKPDTEHAVIRLKNDQANYSLNTDDPLIFKSTLDTDYQMTKRDMGFTEEEFKRLNINAAKSSFLPEDEKRELLDLLYKAYGMPPSASAGQNL
notes: Secreted by Rv-ADA transduced 293 T cells in co-culture; also called ADA1; Rv-ADA
Question: Which “ADA membrane binding efficiency (relative to secreted ADA-CD3)” value does the source give for B1 here?
Answer: 40%
